Measurements reported in patent publication US20180355035A1 (STCUBE, published 2018).

Columns and labels:
[1] = molecular target: T1, hBTN1A1 overexpressed in PC3 prostate cancer cells (human, UniProt Q13410 27-526); assay: cell-based or functional assay
T1 sequence: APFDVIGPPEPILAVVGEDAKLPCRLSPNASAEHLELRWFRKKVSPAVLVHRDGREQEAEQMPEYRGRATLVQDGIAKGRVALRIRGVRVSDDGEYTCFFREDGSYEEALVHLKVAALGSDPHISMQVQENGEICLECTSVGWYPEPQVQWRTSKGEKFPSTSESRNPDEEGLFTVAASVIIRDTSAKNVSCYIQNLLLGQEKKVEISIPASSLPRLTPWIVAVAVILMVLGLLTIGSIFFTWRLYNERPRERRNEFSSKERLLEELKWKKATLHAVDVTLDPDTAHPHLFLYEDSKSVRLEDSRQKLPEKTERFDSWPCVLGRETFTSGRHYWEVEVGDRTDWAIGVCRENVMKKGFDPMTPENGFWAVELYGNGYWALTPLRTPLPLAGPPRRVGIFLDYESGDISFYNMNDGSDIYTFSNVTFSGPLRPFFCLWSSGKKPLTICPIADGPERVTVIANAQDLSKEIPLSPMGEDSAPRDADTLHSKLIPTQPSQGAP

[2] = molecular target: T2, wild-type human BTN1A1 expressed in HEK293T cells (human, UniProt Q13410 27-526, fully glycosylated, as the filing says); assay: FACS on 293T cells overexpressing BTN1A1 WT or 2NQ, FITC secondary antibody
T2 construct: in whole-cell lysates in the Western blot; also called BTN1A1 WT; human BTN1A1 WT; not shown: C-terminal flag tag
T2 sequence: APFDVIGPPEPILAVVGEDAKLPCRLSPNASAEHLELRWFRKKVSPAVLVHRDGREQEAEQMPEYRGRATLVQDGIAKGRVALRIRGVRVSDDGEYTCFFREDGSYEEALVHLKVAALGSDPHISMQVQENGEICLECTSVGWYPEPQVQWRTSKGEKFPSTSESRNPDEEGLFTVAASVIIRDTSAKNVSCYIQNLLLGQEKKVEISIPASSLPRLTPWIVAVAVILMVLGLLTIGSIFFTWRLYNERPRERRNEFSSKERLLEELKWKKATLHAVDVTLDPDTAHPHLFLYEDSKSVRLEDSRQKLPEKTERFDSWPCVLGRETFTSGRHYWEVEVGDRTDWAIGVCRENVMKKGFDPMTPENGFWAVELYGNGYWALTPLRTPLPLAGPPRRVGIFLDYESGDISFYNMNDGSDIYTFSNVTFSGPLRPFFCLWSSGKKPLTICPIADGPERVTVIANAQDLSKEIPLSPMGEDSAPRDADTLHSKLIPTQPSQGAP
Protocol: FIG. 10—FACS analysis of mouse anti-human BTN1A1 monoclonal antibodies. Human BTN1A1-2NQ (i.e. N55Q and N215Q) and human BTN1A1 WT were expressed in HEK293T cells by transient transfection. The surface expression of hBTN1A1 was measured by FACS analysis with anti-BTN1A1 monoclonal antibodies designated as STC702, STC810, STC819, STC820, STC821, STC822, STC838, and STC839. Anti-BTN1A1 polyclonal antibodies were used as a positive control.
The glyco-specificity of monoclonal anti-BTN1A1 antibodies was characterized by dot blot analysis. Each anti-BTN1A1 mAb (0.5 μg/well loaded) was tested for binding to glycosylated BTN1A1 (PNGaseF “−”) or deglycosylated BTN1A1 (PNGaseF “+”). Non-specific antibody controls (“IgG,” 0.25 μg/well loaded) was also included in the assay. As shown in FIGS. 9A-9B, both glycosylated BTN1A1 protein and non-glycosylated BTN1A1 (BTN1A1 protein treated with PNGase F) were coated on the solid phase and tested for mAbs and antigens binding affinity. […] The glyco-specificity of monoclonal anti-BTN1A1 antibodies was also characterized by FACS analysis. […] After washing, fluorescence intensity (MFI) was measured to assess relative binding of antibodies to membrane bound glycosylated or unglycosylated BTN1A1. […]

[3] = molecular target: T3, human BTN1A1 extracellular domain tagged with human IgG1 Fc (human, UniProt Q13410 27-242); assay: SPR (Biacore), STC810 captured on Protein A chip, BTN1A1-ECD-Fc injected
T3 construct: also called hBTN1A1-Fc; BTN1A1-Fc; not shown: human IgG1 Fc region
T3 chain: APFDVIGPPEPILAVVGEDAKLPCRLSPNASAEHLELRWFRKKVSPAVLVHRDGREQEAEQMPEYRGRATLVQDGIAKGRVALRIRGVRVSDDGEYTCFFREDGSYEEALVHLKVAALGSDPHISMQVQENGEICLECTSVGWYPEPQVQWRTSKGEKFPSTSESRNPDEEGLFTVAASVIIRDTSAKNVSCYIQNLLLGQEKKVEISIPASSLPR
Protocol: (§1) FIG. 11—Surface plasmon resonance analysis of BTN1A1-Fc and BTN1A1-His binding to immobilized STC810 MAb. FIG. 11A: Sensorgrams showing real-time binding of soluble BTN1A1-Fc protein (2-64 nM with 2-fold dilution) to STC810 immobilized on a Protein A-CM5 chip. Flow cells without any immobilized protein were used as the controls for non-specific binding and were subtracted from the presented data. FIG. 11B: Sensorgrams showing real-time binding of soluble BTN1A1-His protein (2-64 nM with 4-fold dilution) to STC810 immobilized on a Protein A-CM5 chip.
(§2) In a Biacore assay, the binding affinity between BTN1A1 and monoclonal anti-BTN1A1 antibody STC810 was measured by Surface Plasmon Resonance. Sensorgram and saturation curve of the titration of antibody by BTN1A1-ECD tagged with 6×His or human IgG1 Fc. The protein A chip (BIAcore) was coated with antibody with 600 response units (RU) and the BTN1A1 ECD was injected in the microfluidic channel. The KD values were obtained using the fitting tool of the BIAevaluation software (BIAcore). FIG. 11 provides sensorgrams showing real-time binding of soluble BTN1A1-Fc protein (2-64 nM with 2-fold dilution; FIG. 11A) or soluble BTN1A1-His protein (2-64 nM with 4-fold dilution; FIG. 11B) to STC810 immobilized on a Protein A-CM5 chip. […]

[4] = molecular target: T4, human BTN1A1 extracellular domain tagged with 6xHis (human, UniProt Q13410 27-242, N-glycosylated (removed by PNGase F in the deglycosylated control)); assay: SPR (Biacore), STC810 captured on Protein A chip, BTN1A1-ECD-His injected
T4 construct: also called hBTN1A1-His; BTN1A1-His
T4 chain: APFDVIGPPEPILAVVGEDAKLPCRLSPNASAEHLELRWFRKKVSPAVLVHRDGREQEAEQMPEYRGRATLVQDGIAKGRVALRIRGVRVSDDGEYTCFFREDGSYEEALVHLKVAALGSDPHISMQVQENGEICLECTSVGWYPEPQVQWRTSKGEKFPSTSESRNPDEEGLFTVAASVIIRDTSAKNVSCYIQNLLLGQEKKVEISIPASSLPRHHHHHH
Protocol: as §1, §2

[5] = molecular target: T3, human BTN1A1 extracellular domain …; assay: BLI (Octet), antibody loaded on sensor, single analyte concentration, 1:1 fit
Protocol: (§3) The KD value of STC810 was also determined in an octet assay. […] Baseline was established in PBS containing 1 mg/ml bovine serum albumin (assay buffer), the association step was performed by submerging the sensors in a single concentration of analyte in assay buffer. Dissociation was performed and monitored in fresh assay buffer. All experiments were performed with sensor shaking at 1,000 rpm. ForteBio's data analysis software was used to fit the data to a 1:1 binding model to extract an association rate and dissociation rate. The KD value was calculated using the ratio kd/ka. In a typical epitope binning assay, antigen BTN1A1-Fc (10 nM) was preincubated with the second antibody (10 nM) for 1 h at room temperature. Control antibody (20 nM) was loaded onto AMC sensors (ForteBio) and remaining Fc-binding sites on the sensor were blocked with a whole mouse IgG antibody (Jackson ImmunoResearch). The sensors were exposed to preinculated antigen-second antibody mixture. Raw data was processed using ForteBio's Data Analysis Software 7.0 and the antibody pairs were assessed for competitive binding. Additional binding by the second antibody indicates an unoccupied epitope (non-competitor), while no binding indicates epitope blocking (competitor).

[6] = molecular target: T3, human BTN1A1 extracellular domain …; assay: SPR (Biacore), STC810 captured on Protein A chip, BTN1A1-ECD-Fc injected; column headed 'ka (1/s)'
Protocol: as §1, §2

[7] = molecular target: T3, human BTN1A1 extracellular domain …; assay: SPR (Biacore), STC810 captured on Protein A chip, BTN1A1-ECD-Fc injected; column headed 'kd (1/Ms)'
Protocol: as §1, §2

[8] = molecular target: T4, human BTN1A1 extracellular domain …; assay: SPR (Biacore), STC810 captured on Protein A chip, BTN1A1-ECD-His injected; column headed 'ka (1/s)'
Protocol: as §1, §2

[9] = molecular target: T4, human BTN1A1 extracellular domain …; assay: SPR (Biacore), STC810 captured on Protein A chip, BTN1A1-ECD-His injected; column headed 'kd (1/Ms)'
Protocol: as §1, §2

[10] = molecular target: T3, human BTN1A1 extracellular domain …; assay: BLI (Octet), antibody loaded on sensor, single analyte concentration, 1:1 fit; column headed 'ka (1/s)'
Protocol: as §3

[11] = molecular target: T3, human BTN1A1 extracellular domain …; assay: BLI (Octet), antibody loaded on sensor, single analyte concentration, 1:1 fit; column headed 'kd (1/Ms)'
Protocol: as §3

mBTNA1A-FC = molecular target: T5, mBTNA1A-FC (Mus musculus, UniProt Q62556); assay: dot blot (layout FIG. 9B), lanes 5-8 mBTNA1A-FC = mouse BTN1A1-Fc, untreated and PNGase F treated
T5 construct: antigen of lanes 5-8 of the dot blot, used untreated and PNGase F treated; the sheet prints mBTNA1A-FC; also called mouse BTN1A1-Fc; mouse BTN1A1 tagged with human IgG1 Fc region
T5 sequence (Fc fusion chain, looked up): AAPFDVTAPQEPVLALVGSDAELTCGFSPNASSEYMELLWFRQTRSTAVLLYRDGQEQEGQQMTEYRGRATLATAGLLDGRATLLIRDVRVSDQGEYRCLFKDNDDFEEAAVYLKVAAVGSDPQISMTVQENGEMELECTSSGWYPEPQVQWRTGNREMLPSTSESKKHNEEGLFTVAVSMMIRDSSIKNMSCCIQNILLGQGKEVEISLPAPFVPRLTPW
Protocol: FIG. 9—Dot blot analysis of mouse anti-human BTN1A1 antibodies. […] Antigen BTN1A1-ECD tagged with 6×His was treated with PNGase F to remove N-glycosylation. Polyclonal antibodies were used for positive control. To test the species specificity of BTN1A1, human and mouse BTN1A1 tagged with human IgG1 Fc region was used (lane 1-4 with human BTN1A1-Fc and lane 5-8 with mouse BTN1A1-Fc). The term “ECD” stands for extracellular domain.
The glyco-specificity of monoclonal anti-BTN1A1 antibodies was characterized by dot blot analysis. Each anti-BTN1A1 mAb (0.5 μg/well loaded) was tested for binding to glycosylated BTN1A1 (PNGaseF “−”) or deglycosylated BTN1A1 (PNGaseF “+”). Non-specific antibody controls (“IgG,” 0.25 μg/well loaded) was also included in the assay. As shown in FIGS. 9A-9B, both glycosylated BTN1A1 protein and non-glycosylated BTN1A1 (BTN1A1 protein treated with PNGase F) were coated on the solid phase and tested for mAbs and antigens binding affinity. […] The glyco-specificity of monoclonal anti-BTN1A1 antibodies was also characterized by FACS analysis. […] After washing, fluorescence intensity (MFI) was measured to assess relative binding of antibodies to membrane bound glycosylated or unglycosylated BTN1A1.

B1: mouse monoclonal anti-human BTN1A1 antibody STC810 (antibody, V domains shown)
VH: EVQLQQSGPELVKPGASVKISCKASGYTFTHYNMDWVKQSHGKSLEWIGYIYPSNGGTGYNQKFKSRATLTVDKSSSTAYMELHSLTSEDSAVYYCARGAYHYGSSYAYWYFDVWGAGTTVTVSS
VL: DIQMTQTTSSLSASLGDRVTISCSASQDISNYLNWYQQKPDETVKLLISYTSSLHSGVPSRFSGSGSGTDYSLTISNLAPEDIATYYCQQSSKLPFTFGSGTELEIKR
notes: also called STC838; STC810 MAb
In the case of B1, the “relative apoptosis of PC3 cells at 120 h (caspase 3/7), with activated T cells, 50 µg/ml STC810” value [1] is reported as 2 fold, the “fold MFI on glycosylated BTN1A1 (WT) over unglycosylated BTN1A1 (2NQ)” value [2] is reported as 5 fold and the Kd [3] is reported as 1.81 nM. It also gave a Kd [4] of 14.9 nM, a Kd [5] of 2.12 nM and a koff [6] of 0.00018 s⁻¹. The kon [7] was 98900 M⁻¹ s⁻¹, the koff [8] was 0.00402 s⁻¹ and the kon [9] was 269000 M⁻¹ s⁻¹. The koff [10] was 0.000309 s⁻¹, the kon [11] was 145000 M⁻¹ s⁻¹ and the binding result (mBTNA1A-FC) was “no binding (tested: 0.5 µg/well)”.
